These results are taken from PMC10465592, “Reduced ADP off-rate by the yeast CCT2 double mutation T394P/R510H which causes Leber congenital amaurosis in humans” (Communications Biology, 2023).

Common to all, as to experiment: steady-state ATPase, coumarin-labelled phosphate-binding protein fluorescence, fit to two allosteric transitions
Format in all cases: biochemical, Saccharomyces cerevisiae
Common to all, as to conditions: 25 °C, pH 7.5 Tris-HCl, 10 mM MgCl2, 50 mM KCl, 20% glycerol, 1 mM DTT, first ring (stronger site), cooperative

Data set [1] deals with T1, Nc1ncnc2c1ncn2[C@@H]1O[C@H](COP(=O)(O)OP(=O)(O)OP(=O)(O)O)[C@@H](O)[C@H]1O.
T1 construct: native complex from yeast cells, two back-to-back rings each of eight distinct subunits CCT1-CCT8; CCT2 mutations introduced in the chromosomal gene
From the text:
steady-state ATPase, coumarin-labelled phosphate-binding protein fluorescence, fit to two allosteric transitions on CCT/TRiC (Saccharomyces cerevisiae) | In the case of the wild-type, the values of the apparent ATP binding constants

For data set [2] the test system is unchanged. From the text: steady-state ATPase, coumarin-labelled phosphate-binding protein fluorescence, fit to two allosteric transitions on CCT/TRiC (Saccharomyces cerevisiae) | In the case of the R510H single mutant, the values of the apparent ATP binding
The source holds these as a separate data set.

Data set [3] shares this test system. From the text: steady-state ATPase, coumarin-labelled phosphate-binding protein fluorescence, fit to two allosteric transitions on CCT/TRiC (Saccharomyces cerevisiae) | In the case of the T394P single mutant, the values of the apparent ATP binding
The source holds these as a separate data set.

Take “CCT/TRiC (Saccharomyces cerevisiae) (Saccharomyces cerevisiae S288C)”: in data set [1], the K0.5 is 8.3 (±1.6) μM and the kcat is given as 0.043 (±0.005) s^-1.
In the case of “CCT/TRiC (Saccharomyces cerevisiae) (Saccharomyces cerevisiae S288C; P39076:R510H)”, in data set [2], the K0.5 is given as 7.1 (±2.4) μM and the kcat is on record as 0.10 (±0.03) s^-1.
Take “CCT/TRiC (Saccharomyces cerevisiae) (Saccharomyces cerevisiae S288C; P39076:T394P)”: in data set [3], the K0.5 is reported as 8.9 (±3.4) μM and the kcat is on record as 0.11 (±0.03) s^-1.
